Measurements as given in the nanobody polyreactivity screen of Harvey et al. (2022).

assay: yeast display, Sf9 membrane polyspecificity reagent, FACS + sequencing; frameworks hold sequencing errors
Summary of the method: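 A synthetic nanobody library was expressed on Saccharomyces cerevisiae BJ5465 by galactose induction for 36–48 hours. The library was stained for 1 hour at 4 °C with 10% biotinylated, detergent-solubilized Sf9 membrane reagent and enriched with streptavidin microbeads before FACS. Low and high (top ~1%) gates were set on anti-HA fluorescence for expression and streptavidin fluorescence for reagent binding, and each polyreactivity label reflects the gate of origin.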

Row | Sequence | polyreactivity (PSR sort gate)
1 | QVQLVESGGGLVQAGGSLRLSCAASGGTFGTNTMGWYRQAPGKERELVAAISRSGGSTYYADSVKGRFTISRDNAKNTVYLQMNCLKPEDTAVYYCNAVPRKYTDEFDYWGQGTQVTVSS | high polyreactivity
2 | QVQLVESGGGLVQAGGSLRLSCAASGGTFIYYAMGWYSQAPGKERELVAAISSGGSTYYADSVKGRFTISRDNAKNTVYLQMNSLKPEDTAVYYCAKRRAVQIVDLEYWRQGTQVTVSS | low polyreactivity
3 | QVQLVESGGGLVQAGGSLRLSCAASGGTFKRYAMGWYRQAPGKERELVAAISGRGGSTYYADSVKGRFTISRDNAKTTVYLQMNSLKPEDTAVYYCNAGGSPQFYGRSKGDYWGQATQVTVSS | high polyreactivity
4 | QVQLVESGGGLVQAGGSLRLSCAASGGTFNRNAMGWYRQAPGKERELVAAISSSGGRTYYADSVKGRFTISRDNAKNTVYLQMNSLKPEDTAVYYCAAGRKGHGGAYDSWAQGTQVTVSS | high polyreactivity
5 | QVQLVESGGGLVQAGGSLRLSCAASGGTFNRYAMGWYRQAPGKERELVAAISWSGGSTYYADSVKGRFTISRDTAKNTVYLQMNSLKPEDTAVYYCNARNWYYEGDYWGQGTQVTVSS | high polyreactivity
6 | QVQLVESGGGLVQAGGSLRLSCAASGGTFPAYAMGWYRQAPGKERELVASISDDDSTYYADSVKGRFTISRDNAKNTVYLQMNSLKPEDTAVYYCNVEYWYYPSVEYYWTAYDYWGQGTQVTVSS | low polyreactivity
7 | QVQLVESGGGLVQAGGSLRLSCAASGGTFPRYAMGWYRQAPGKERELVAAINQSGGRTYYADSVKGRFTISRDNAKNTVYLQMNSLKPEDTADYYCAAGYGWRTSYLSYGYWGQGTQVTVSS | high polyreactivity
8 | QVQLVESGGGLVQAGGSLRLSCAASGGTFPRYAMGWYRQAPGKERELVAAITRSGGRTYYADSVKGRFTISRDNAKNTVYLQMNSLKPEDTAVYYCAADAPDYRMDYWGQGTQVTVSS | high polyreactivity
9 | QVQLVESGGGLVQAGGSLRLSCAASGGTFQSNAKGWYRQAPGKERELVASITSRGSSTYYADSVKGRFTISRDNAKNTVYLQMNSLKPEDTAVFYCAKGRSLQMYYKGGIKGGYWGQGTQVTVSS | low polyreactivity
10 | QVQLVESGGGLVQAGGSLRLSCAASGGTFRKNAMGWYRQAPGKERELVAAITKSGGSTYYADSVKGRFTISRDNAKNTVYLQMNSLKPEDTAVYYCNTYPGSTQPPYDYWGQGTQVTVSS | low polyreactivity
11 | QVQLVESGGGLVQAGGSLRLSCAASGGTFRRYAMGWYRQAPGKEREIVAAITISGGNTYYADSVKGRFTISRDNAKNTVYLQMNSLNPEDTAVYYCAADYAYNKYLSVEYWGQGTQVTVSS | low polyreactivity
12 | QVQLVESGGGLVQAGGSLRLSCAASGGTFRRYTMGWYRQAPGKERELVAVISRSGGSTYYADSVKGRFTISRDNAKNTVYLQMNSLKPEDTAVYYCAVVYYNGYDWGQGTQVTVSS | high polyreactivity
13 | QVQLVESGGGLVQAGGSLRLSCAASGGTFRSNAMGWYRQAPGKERELVAAITRTGRTNYADSVKGRFTISRDNAKNTVYLQMNSLKPEDTAVYYCNAARYVREYDYWGQGTQVTVSS | high polyreactivity
14 | QVQLVESGGGLVQAGGSLRLSCAASGGTFRVYAMGWYRQAPGKERELVAAISSGGSTNYADSVKGRFTISRDNAKNTVYLQMNSLKPEDTAVYYCNAKYRYRFARSPIYYYWGQGTQVTVSS | low polyreactivity
15 | QVQLVESGGGLVQAGGSLRLSCAASGGTFRVYAMGWYRQAPGKERELVAAITGRGGSTYYADSVKGRFTISRDNAKNTVYLQMNSLKPEDTAVYYCAAQAYWDFGSVARRDSWGQGTQVTVSS | low polyreactivity
16 | QVQLVESGGGLVQAGGSLRLSCAASGGTFSDNAMGWYRQAPGKERELVADIDIGGITYYADSVKGRFTISRDNAKNTVYLQMNSLIPEDTAVYYCAAVTTYYYYDVTDYAYEYYYWRQGTQVTVSS | low polyreactivity
17 | QVQLVESGGGLVQAGGSLRLSCAASGGTFSFYTMGWYRQAPGKERELVAAISRSGGRTYYADSVKGRFTISRDHAQNTVYLQMNSLKPEDTAVYYCAAERFSNIYTTMGYWGQGTQVTVSS | high polyreactivity
